This is an account of results in patent US20240228604A1 (ALCHEMAB THERAPEUTICS, published 2024).

Residue numbers refer to the chain shown, from its start.

Experiment [1] concerns the target T1, Recombinant rat UNC5C (N-terminal His and FLAG tag), in-house production from HEK293F cells (rat, UniProt Q761X5 41-380).
T1 construct: also called rat UNC5C (inhouse antigen); rat antigen
Description: direct ELISA. The procedure:
(§1) The plate was washed with PBS. Plates were blocked with 200 μl/well of blocking solution (1% BSA w/v in PBS) for 1 hour at room temperature. Following this, the blocking solution was removed and antibodies to be assessed were diluted in dilution series (1 μM to 0.05 nM) in blocking solution (1% BSA w/v in PBS) and applied to the plate. Plates were incubated at room temperature for 1 hour. The plate was washed with PBS/0.1% Tween. […] The plate was washed with PBS/0.1% Tween and TMB solution (Life Technology; #002023) added. Plates were incubated for 5 minutes at room temperature prior to the addition of stopping solution (0.5M sulphuric acid). Absorbance was read on Molecular Devices FilterMaxF5 plate reader at 450 nm. Analysis was performed using a non-linear fit curve fitting algorithm on GraphPad prism and EC50 calculated.
(§2) To measure the binding potency of antibodies to UNC5C protein, antibodies were assessed in a direct ELISA format for binding to human UNC5C. In addition, a selection of these antibodies was also screened for binding to mouse, cyno, and rat UNC5C in a direct ELISA format.

Experiment [2] has as its target T2, Recombinant cyno UNC5C (N-terminal His and FLAG tag), in-house production from HEK293F cells (cyno, UniProt O95185 41-380 (human entry), limits assumed).
T2 construct: also called cyno UNC5C (Inhouse antigen); cyno antigen
The experiment in a line: direct ELISA. The procedure: as §1, §2

Experiment [3] addresses T3, UNC5C recombinant human antigen, Fc-tagged (R&D Systems, #1005-UN) (human, UniProt O95185 41-380, limits assumed).
T3 construct: Bought protein; also called rhUNC5C; not shown: Fc tag of the bought protein
Description: ELISA, antigen down.

The target of experiment [4] is T4, rmUNC5C, in-house production from HEK293F cells (N-terminal His and FLAG tag + amino acids 41-380 of murine … (mouse, UniProt O08747 41-380)).
T4 construct: extracellular domain; also called mouse UNC5C (Inhouse antigen); recombinant mouse UNC5C
The experiment in a line: direct ELISA. The procedure: as §1, §2

Experiment [5] concerns the target T5, mouse UNC5C in frozen C57BL/6 mouse brain sections (mouse, UniProt O08747 41-931).
T5 construct: Native protein in fixed tissue sections; also called UNC5C in its natural central nervous system (CNS) context; mouse brain tissue
Description: immunofluorescence on frozen mouse brain sections, 10 µg/ml antibody.

Experiment [6] has as its target T6, Human Neogenin (R&D Systems catalogue number 8607-NE; BLI antigen) (Human, UniProt Q92859 34-1105).
T6 construct: extracellular domain; Bought protein; also called neogenin-1 ectodomain; NEO1
T6 sequence (looked up): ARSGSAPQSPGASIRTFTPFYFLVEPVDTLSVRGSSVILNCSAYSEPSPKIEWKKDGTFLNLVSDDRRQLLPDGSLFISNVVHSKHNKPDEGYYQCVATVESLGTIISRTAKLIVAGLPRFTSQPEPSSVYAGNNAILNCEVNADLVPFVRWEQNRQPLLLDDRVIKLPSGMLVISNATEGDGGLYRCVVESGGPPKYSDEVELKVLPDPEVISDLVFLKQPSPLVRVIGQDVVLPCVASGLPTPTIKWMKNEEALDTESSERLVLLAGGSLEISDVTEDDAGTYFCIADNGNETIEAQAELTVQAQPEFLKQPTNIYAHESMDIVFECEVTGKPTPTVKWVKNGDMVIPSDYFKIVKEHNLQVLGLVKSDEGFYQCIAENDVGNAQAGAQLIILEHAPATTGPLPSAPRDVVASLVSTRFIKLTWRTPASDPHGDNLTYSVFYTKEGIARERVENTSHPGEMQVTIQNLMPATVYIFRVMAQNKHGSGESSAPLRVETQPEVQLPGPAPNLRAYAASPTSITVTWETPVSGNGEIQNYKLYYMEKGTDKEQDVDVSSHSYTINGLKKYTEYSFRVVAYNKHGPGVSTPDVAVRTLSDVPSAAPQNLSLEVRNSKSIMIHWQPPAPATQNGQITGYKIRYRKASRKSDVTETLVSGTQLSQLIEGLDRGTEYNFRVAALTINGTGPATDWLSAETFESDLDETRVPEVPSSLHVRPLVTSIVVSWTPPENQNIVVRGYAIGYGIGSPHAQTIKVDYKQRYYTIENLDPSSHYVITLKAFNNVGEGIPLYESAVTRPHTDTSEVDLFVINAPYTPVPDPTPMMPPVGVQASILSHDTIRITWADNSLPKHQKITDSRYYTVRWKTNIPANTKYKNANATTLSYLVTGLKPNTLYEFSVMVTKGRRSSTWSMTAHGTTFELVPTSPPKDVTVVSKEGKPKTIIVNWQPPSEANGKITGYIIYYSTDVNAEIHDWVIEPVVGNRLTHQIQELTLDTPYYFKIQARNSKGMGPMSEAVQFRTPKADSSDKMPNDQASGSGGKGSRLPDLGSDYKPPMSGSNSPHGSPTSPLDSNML
Description: BLI, antigen captured by His tag, antibody as analyte. An excerpt: (§3) Antigen was loaded as ligand and dipped into antibody as analyte during association, and assay buffer during dissociation.
(§4) Purified recombinant antigens were purchased from a commercial supplier or prepared and purified in-house and details are shown in Table 2.

The target of experiment [7] is T7, Human recombinant UNC5A (BLI antigen) (Human, UniProt Q6ZN44 26-306).
T7 construct: Captured by His tag; also called UNC5A ectodomain
Described as above.
Description: as §3, §4

In experiment [8] the target is T8, Human recombinant UNC5B (BLI antigen) (Human, UniProt Q8IZJ1 27-377).
T8 construct: also called UNC5B ectodomain
The description is as above.
Description: as §3, §4

For experiment [9], the target named is T9, Human recombinant DCC (BLI antigen) (Human, UniProt P43146 26-1097).
T9 construct: also called Netrin receptor DCC ectodomain
The description is as above.
Description: as §3, §4

Experiment [10] concerns the target T10, Human recombinant UNC5D (BLI antigen) (Human, UniProt Q6UXZ4 33-379).
T10 construct: also called UNC5D ectodomain
Described as above.
Description: as §3, §4

The target of experiment [11] is T3, UNC5C recombinant human antigen, …. Description: direct ELISA. The procedure:
as §1, §2

T4 sequence (O08747 other isoform, or with tags, fused parts or gaps limits assumed): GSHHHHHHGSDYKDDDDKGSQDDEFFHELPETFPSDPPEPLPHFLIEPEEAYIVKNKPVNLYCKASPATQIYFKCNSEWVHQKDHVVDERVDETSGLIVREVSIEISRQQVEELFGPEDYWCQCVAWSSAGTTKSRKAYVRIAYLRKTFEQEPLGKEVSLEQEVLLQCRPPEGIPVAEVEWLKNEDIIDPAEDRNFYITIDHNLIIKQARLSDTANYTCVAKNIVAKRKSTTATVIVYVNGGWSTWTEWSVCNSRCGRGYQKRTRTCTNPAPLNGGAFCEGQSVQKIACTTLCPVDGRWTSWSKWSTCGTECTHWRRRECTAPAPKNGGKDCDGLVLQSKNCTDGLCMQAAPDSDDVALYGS
T1 sequence (Q761X5 other isoform, or with tags, fused parts or gaps limits assumed): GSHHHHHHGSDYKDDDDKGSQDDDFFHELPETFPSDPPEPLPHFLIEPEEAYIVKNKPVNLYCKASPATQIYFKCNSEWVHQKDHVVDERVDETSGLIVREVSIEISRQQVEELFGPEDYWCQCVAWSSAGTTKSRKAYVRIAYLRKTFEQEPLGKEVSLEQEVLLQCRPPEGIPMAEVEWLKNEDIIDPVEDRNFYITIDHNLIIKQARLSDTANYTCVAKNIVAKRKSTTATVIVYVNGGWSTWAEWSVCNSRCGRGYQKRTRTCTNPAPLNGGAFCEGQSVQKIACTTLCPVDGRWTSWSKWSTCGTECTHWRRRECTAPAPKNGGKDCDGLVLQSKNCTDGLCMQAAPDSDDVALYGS
T3 sequence (O95185 41-380 limits assumed): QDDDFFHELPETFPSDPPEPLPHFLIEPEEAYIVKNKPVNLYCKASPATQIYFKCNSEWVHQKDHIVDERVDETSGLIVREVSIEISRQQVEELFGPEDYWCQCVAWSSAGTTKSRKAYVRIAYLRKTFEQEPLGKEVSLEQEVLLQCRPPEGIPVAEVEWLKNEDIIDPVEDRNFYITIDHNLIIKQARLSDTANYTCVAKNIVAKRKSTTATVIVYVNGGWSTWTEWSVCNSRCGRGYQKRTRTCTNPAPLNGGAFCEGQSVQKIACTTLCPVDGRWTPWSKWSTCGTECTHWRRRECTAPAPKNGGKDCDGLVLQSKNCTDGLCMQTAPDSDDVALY
T7 sequence (Q6ZN44 other isoform, or with tags, fused parts or gaps): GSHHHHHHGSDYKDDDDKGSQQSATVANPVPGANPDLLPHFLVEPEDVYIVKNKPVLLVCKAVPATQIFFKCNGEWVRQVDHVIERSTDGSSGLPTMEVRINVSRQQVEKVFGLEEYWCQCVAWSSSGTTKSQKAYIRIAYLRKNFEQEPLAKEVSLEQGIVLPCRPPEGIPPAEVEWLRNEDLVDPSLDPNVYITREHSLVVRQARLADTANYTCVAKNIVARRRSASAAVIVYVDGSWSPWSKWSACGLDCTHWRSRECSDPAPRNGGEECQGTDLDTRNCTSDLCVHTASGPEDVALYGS
T5 sequence (O08747 41-931 limits assumed): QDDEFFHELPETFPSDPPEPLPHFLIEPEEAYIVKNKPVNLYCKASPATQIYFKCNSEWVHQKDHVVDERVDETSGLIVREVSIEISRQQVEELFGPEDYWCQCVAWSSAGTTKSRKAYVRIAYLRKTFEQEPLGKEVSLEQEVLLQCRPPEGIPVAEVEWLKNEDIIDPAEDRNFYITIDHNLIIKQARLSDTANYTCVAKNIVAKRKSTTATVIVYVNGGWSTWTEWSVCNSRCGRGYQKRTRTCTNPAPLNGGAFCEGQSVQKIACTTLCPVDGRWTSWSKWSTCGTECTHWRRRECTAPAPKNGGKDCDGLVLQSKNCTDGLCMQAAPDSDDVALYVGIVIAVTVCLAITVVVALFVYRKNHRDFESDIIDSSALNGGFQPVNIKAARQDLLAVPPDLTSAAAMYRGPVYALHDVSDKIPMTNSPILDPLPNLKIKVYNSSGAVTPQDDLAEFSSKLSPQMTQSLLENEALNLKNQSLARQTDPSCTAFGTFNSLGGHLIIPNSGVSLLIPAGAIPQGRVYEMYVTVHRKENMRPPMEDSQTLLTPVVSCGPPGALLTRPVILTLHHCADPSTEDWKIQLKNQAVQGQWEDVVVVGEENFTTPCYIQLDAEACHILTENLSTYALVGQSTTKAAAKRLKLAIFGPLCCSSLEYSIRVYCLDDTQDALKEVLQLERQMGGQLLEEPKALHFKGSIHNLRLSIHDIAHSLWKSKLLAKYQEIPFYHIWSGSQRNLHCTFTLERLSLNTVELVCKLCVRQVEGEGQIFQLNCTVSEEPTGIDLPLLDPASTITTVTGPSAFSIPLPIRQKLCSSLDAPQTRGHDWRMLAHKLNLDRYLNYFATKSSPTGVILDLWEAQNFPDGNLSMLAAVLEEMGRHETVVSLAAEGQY
T9 sequence (P43146 other isoform, or with tags, fused parts or gaps): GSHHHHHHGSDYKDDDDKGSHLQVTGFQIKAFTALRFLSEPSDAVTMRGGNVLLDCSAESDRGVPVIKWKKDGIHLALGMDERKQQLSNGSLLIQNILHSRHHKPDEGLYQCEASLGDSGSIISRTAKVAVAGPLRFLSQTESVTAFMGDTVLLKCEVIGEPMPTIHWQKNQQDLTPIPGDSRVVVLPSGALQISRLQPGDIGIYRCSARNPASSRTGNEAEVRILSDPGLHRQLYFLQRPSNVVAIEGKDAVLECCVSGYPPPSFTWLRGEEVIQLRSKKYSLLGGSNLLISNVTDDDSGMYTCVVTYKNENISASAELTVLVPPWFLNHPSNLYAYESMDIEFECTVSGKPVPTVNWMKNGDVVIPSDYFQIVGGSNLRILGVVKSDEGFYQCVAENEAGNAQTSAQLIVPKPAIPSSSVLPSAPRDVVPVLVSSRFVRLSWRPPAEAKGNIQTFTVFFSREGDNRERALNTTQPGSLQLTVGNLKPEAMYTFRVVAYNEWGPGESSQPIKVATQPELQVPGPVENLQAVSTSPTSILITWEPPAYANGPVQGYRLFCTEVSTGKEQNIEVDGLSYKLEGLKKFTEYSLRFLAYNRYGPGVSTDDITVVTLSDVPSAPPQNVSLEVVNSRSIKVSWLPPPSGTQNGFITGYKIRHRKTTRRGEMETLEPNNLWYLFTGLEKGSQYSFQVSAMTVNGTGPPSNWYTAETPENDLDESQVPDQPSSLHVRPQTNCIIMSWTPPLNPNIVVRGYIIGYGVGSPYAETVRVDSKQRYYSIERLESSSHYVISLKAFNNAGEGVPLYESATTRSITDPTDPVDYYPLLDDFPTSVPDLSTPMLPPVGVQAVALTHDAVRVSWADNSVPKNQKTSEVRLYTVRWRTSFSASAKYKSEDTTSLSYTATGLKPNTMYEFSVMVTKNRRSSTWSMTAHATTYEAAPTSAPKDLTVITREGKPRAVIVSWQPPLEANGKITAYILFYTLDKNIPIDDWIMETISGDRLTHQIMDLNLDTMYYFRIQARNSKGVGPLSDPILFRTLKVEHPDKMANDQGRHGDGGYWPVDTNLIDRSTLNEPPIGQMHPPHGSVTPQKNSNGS
T2 sequence (O95185 other isoform, or with tags, fused parts or gaps limits assumed): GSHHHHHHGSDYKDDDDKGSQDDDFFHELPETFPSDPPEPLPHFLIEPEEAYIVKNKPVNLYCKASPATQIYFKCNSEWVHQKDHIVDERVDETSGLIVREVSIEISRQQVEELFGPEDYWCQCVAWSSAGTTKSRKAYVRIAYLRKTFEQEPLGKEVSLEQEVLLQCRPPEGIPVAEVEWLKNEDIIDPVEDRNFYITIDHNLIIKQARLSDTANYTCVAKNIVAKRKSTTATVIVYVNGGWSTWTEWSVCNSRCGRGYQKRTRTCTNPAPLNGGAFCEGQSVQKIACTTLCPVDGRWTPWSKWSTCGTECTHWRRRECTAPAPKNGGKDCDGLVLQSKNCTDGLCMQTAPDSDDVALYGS
T10 sequence (Q6UXZ4 other isoform, or with tags, fused parts or gaps): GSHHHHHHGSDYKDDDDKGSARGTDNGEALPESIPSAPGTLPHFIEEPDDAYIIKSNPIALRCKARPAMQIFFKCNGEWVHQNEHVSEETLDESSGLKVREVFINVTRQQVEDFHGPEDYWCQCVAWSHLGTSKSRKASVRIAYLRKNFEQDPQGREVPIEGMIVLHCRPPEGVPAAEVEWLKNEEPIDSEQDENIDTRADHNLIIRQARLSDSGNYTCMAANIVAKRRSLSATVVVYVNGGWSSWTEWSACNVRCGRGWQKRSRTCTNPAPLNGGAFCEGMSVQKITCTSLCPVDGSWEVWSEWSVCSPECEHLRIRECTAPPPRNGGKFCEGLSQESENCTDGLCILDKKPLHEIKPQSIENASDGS

B1: ATL_0005338 (antibody, V domains shown)
VH: EVKLDETGGGLVQPGRPMKLSCVASGFTFSDYWMNWVRQSPEKGLEWVAQIRNKPYNYETYYSDSVKGRFTISRDDSKSSVYLQMNNLRVEDMGIYYCTGSYYGMDYWGQGTSVTVSS
VL: DVVMTQTPLSLPVSLGDQASISCRSSQSLVNSNGNTYLRWYLQKPGQSPKVLIYKVSNRVSGVPDRFSGSGSGTDFTLKISRVEAEDLGVYFCSQSTHVPWTFGGGTKLEIK
notes: also called ATL_5338
Turning to B1, the binding result in [1] and in experiment [2] was “no binding (tested: <1 µM)” throughout.

B2: ATL_0006534 (antibody, V domains shown)
VH: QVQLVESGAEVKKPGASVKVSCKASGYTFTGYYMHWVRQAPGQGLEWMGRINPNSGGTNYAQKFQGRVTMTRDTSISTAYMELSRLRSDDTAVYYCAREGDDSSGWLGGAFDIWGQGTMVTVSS
VL: NFMLTQPHSVLESPGKTVTIPCTRSSGSIASNYVQWYQQRPGSAPTAVIFEDNVRPSGVPDRFSGSVDSSSNSASLTISGLKTEDEGDFYCQSYDSSGHVVFGGGTKVTVL
notes: also called ATL_6534; Y_0001393-001
For B2, the EC50 in [3] is 0.01 nM.

B3: ATL_0005262 (antibody, human IgG1, V domains shown)
VH: QVQLQESGPGLVKPSETLSLTCTVSGGSISSYFWTWIRQPPGKRLEWIGYIHNSGTTNQNPSLKSRVTISIDTSKNHFSLKLSSVTAADTAVYYCARGRGMATLPFDYWGQGTLVTVSS
VL: not shown
notes: also called ATL_5262; ATL5262
Turning to B3, the binding result in [1] is “binds”; in experiment [4], “binds”; in experiment [5], “binds”; in experiment [6], “no binding (tested: up to 100 nM)”; in experiment [7], “no binding (tested: up to 100 nM)”; in experiment [8], “no binding (tested: up to 100 nM)”. The binding result in [9] and in [10] was “no binding (tested: up to 100 nM)” each time.

B4: ATL_0006039 (antibody, IgG1, V domains shown)
VH: B3 VH with T73K
VL: not shown
notes: also called ATL_6039
Consider B4, for which the binding result in [1] is “binds”.

B5: ATL_0006191 (antibody, IgG1, V domains shown)
VH: QVQLQESGPGLVKPSETLSLTCTVSGGSIGSYFWSWIRQTPGKGLEWIGYIHYSGSSNYNPSLKSRVTISVDTFKNQFSLKLTSVTAADTAVYYCARGRGMATLPFDYWGQGTLVTVSS
VL: not shown
notes: ATL_5262 homologue VH paired with the VL of ATL_5262; also called ATL_6191; ATL6191
As for B5, the binding result in [1] and in experiment [4] was “binds” in each case.

B6: ATL_0006001 (antibody, IgG1, V domains shown)
VH: B3 VH
VL: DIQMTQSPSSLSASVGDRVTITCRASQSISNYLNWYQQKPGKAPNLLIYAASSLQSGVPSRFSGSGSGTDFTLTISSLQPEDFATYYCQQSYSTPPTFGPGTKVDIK
notes: VL pairing variant of ATL_5262; also called ATL_6001
Turning to B6, in experiment [11], the “signal over lysozyme control (fold)” value is ≥ 3 fold. The binding result in [4] was “binds”.
